Source: patent EP3205670
Numbering of substitutions follows the chain as printed.

B1: Numax Fab (antibody, V domains shown)
VH: QVTLRESGPALVKPTQTLTLTCTFSGFSLSTAGMSVGWIRQPPGKALEWLADIWWDDKKHYNPSLKDRLTISKDTSKNQVVLKVTNMDPADTATYYCARDMIFNFYFDVWGQGTTVTVSS
VL: DIQMTQSPSTLSASVGDRVTITCSASSRVGYMHWYQQKPGKAPKLLIYDTSKLASGVPSRFSGSGSGTEFTLTISSLQPDDFATYYCFQGSGYPFTFGGGTKVEIK
B2: Synagis (antibody, V domains shown)
VH: B1 VH with A32S, H60D, D67S, D100S, F103T, F105W, Q112A
VL: B1 VL with S24K, A25C, S26Q, S27L, R28S, V103L
B3: Synagis Fab (antibody, V domains shown)
VH: B1 VH with A32S, H60D, D67S, D100S, F103T, F105W, Q112A
VL: B1 VL with S24K, A25C, S26Q, S27L, R28S, V103L

Assays:
hRSV F protein (FTM-NN) [1] = target: T1, hRSV F protein (FTM-NN) (hRSV, UniProt P03420); assay: competition, AlphaScreen
T1 sequence (P03420 26-524): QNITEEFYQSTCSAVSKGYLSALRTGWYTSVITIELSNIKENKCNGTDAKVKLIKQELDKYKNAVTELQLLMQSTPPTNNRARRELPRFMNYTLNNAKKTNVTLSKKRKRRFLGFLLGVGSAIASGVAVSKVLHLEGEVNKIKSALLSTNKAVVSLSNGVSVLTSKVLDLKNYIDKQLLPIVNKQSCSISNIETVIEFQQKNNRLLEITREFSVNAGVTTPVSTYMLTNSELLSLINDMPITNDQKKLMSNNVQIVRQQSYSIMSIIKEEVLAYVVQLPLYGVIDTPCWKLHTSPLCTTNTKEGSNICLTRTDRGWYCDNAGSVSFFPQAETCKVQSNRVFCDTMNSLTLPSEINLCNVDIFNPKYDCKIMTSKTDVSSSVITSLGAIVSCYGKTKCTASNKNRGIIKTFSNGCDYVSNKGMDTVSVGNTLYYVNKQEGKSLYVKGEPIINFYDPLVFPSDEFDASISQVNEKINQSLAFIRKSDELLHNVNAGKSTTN

hRSV F protein (FTM-NN) [2] = target: T1, hRSV F protein (FTM-NN); assay: SPR

| Binder | IC50 (hRSV F protein (FTM-NN) [1]) [nM] | Kd (hRSV F protein (FTM-NN) [2]) [nM] |
| --- | --- | --- |
| B1 | 0.086 | – |
| B2 | – | 0.64 |
| B3 | 0.597 | – |
